B1: 3xFlag-EGFP-ALFY [human] / GST-CTLA4 (201–215) [human] (parent complex)
chain 1: MNMVKRIMGRPRQEECSPQDNALGLMHLRRLFTELCHPPRHMTQKEQEEKLYMMLPVFNRVFGNAPPNTMTEKFSDLLQFTTQVSRLMVTEIRRRASNKSTEAASRAIVQFLEINQSEEASRGWMLLTTINLLASSGQKTVDCMTTMSVPSTLVKCLYLFFDLPHVPEAVGGAQNELPLAERRGLLQKVFVQILVKLCSFVSPAEELAQKDDLQLLFSAITSWCPPYNLPWRKSAGEVLMTISRHGLSVNVVKYIHEKECLSTCVQNMQQSDDLSPLEIVEMFAGLSCFLKDSSDVSQTLLDDFRIWQGYNFLCDLLLRLEQAKEAESKDALKDLVNLITSLTTYGVSELKPAGITTGAPFLLPGFAVPQPAGKGHSVRNVQAFAVLQNAFLKAKTSFLAQIILDAITNIYMADNANYFILESQHTLSQFAEKISKLPEVQNKYFEMLEFVVFSLNYIPCKELISVSILLKSSSSYHCSIIAMKTLLKFTRHDYIFKDVFREVGLLEVMVNLLHKYAALLKDPTQALNEQGDSRNNSSVEDQKHLALLVMETLTVLLQGSNTNAGIFREFGGARCAHNIVKYPQCRQHALMTIQQLVLSPNGDDDMGTLLGLMHSAPPTELQLKTDILRALLSVLRESHRSRTVFRKVGGFVYITSLLVAMERSLSCPPKNGWEKVNQNQVFELLHTVFCTLTAAMRYEPANSHFFKTEIQYEKLADAVRFLGCFSDLRKISAMNVFPSNTQPFQRLLEEDVISIESVSPTLRHCSKLFIYLYKVATDSFDSRAEQIPPCLTSESSLPSPWGTPALSRKRHAYHSVSTPPVYPPKNVADLKLHVTTSSLQSSDAVIIHPGAMLAMLDLLASVGSVTQPEHALDLQLAVANILQSLVHTERNQQVMCEAGLHARLLQRCSAALADEDHSLHPPLQRMFERLASQALEPMVLREFLRLASPLNCGAWDKKLLKQYRVHKPSSLSYEPEMRSSMITSLEGLGTDNVFSLHEDNHYRISKSLVKSAEGSTVPLTRVKCLVSMTTPHDIRLHGSSVTPAFVEFDTSLEGFGCLFLPSLAPHNAPTNNTVTTGLIDGAVVSGIGSGERFFPPPSGLSYSSWFCIEHFSSPPNNHPVRLLTVVRRANSSEQHYVCLAIVLSAKDRSLIVSTKEELLQNYVDDFSEESSFYEILPCCARFRCGELIIEGQWHHLVLVMSKGMLKNSTAALYIDGQLVNTVKLHYVHSTPGGSGSANPPVVSTVYAYIGTPPAQRQIASLVWRLGPTHFLEEVLPSSNVTTIYELGPNYVGSFQAVCMPCKDAKSEGVVPSPVSLVPEEKVSFGLYALSVSSLTVARIRKVYNKLDSKAIAKQLGISSHENATPVKLIHNSAGHLNGSARTIGAALIGYLGVRTFVPKPVATTLQYVGGAAAILGLVAMASDVEGLYAAVKALVCVVKSNPLASKEMERIKGYQLLAMLLKKKRSLLNSHILHLTFSLVGTVDSGHETSIIPNSTAFQDLLCDFEVWLHAPYELHLSLFEHFIELLTESSEASKNAKLMREFQLIPKLLLTLRDMSLSQPTIAAISNVLSFLLQGFPSSNDLLRFGQFISSTLPTFAVCEKFVVMEINNEEKLDTGTEEEFGGLVSANLILLRNRLLDILLKLIYTSKEKTSINLQACEELVKTLGFDWIMMFMEEHLHSTTVTAAMRILVVLLSNQSILIKFKEGLSGGGWLEQTDSVLTNKIGTVLGFNVGRSAGGRSTVREINRDACHFPGFPVLQSFLPKHTNVPALYFLLMALFLQQPVSELPENLQVSVPVISCRSKQGCQFDLDSIWTFIFGVPASSGTVVSSIHNVCTEAVFLLLGMLRSMLTSPWQSEEEGSWLREYPVTLMQFFRYLYHNVPDLASMWMSPDFLCALAATVFPFNIRPYSEMVTDLDDEVGSPAEEFKAFAADTGMNRSQSEYCNVGTKTYLTNHPAKKFVFDFMRVLIIDNLCLTPASKQTPLIDLLLEASPERSTRTQQKEFQTYILDSVMDHLLAADVLLGEDASLPITSGGSYQVLVNNVFYFTQRVVDKLWQGMFNKESKLLIDFIIQLIAQSKRRSQGLSLDAVYHCLNRTILYQFSRAHKTVPQQVALLDSLRVLTVNRNLILGPGNHDQEFISCLAHCLINLHVGSNVDGFGLEAEARMTTWHIMIPSDIEPDGSYSQDISEGRQLLIKAVNRVWTELIHSKKQVLEELFKVTLPVNERGHVDIATARPLIEEAALKCWQNHLAHEKKCISRGEALAPTTQSKLSRVSSGFGLSKLTGSRRNRKESGLNKHSLSTQEISQWMFTHIAVVRDLVDTQYKEYQERQQNALKYVTEEWCQIECELLRERGLWGPPIGSHLDKWMLEMTEGPCRMRKKMVRNDMFYNHYPYVPETEQETNVASEIPSKQPETPDDIPQKKPARYRRAVSYDSKEYYMRLASGNPAIVQDAIVESSEGEAAQQEPEHGEDTIAKVKGLVKPPLKRSRSAPDGGDEENQEQLQDQIAEGSSIEEEEKTDNATLLRLLEEGEKIQHMYRCARVQGLDTSEGLLLFGKEHFYVIDGFTMTATREIRDIETLPPNMHEPIIPRGARQGPSQLKRTCSIFAYEDIKEVHKRRYLLQPIAVEVFSGDGRNYLLAFQKGIRNKVYQRFLAVVPSLTDSSESVSGQRPNTSVEQGSGLLSTLVGEKSVTQRWERGEISNFQYLMHLNTLAGRSYNDLMQYPVFPWILADYDSEEVDLTNPKTFRNLAKPMGAQTDERLAQYKKRYKDWEDPNGETPAYHYGTHYSSAMIVASYLVRMEPFTQIFLRLQGGHFDLADRMFHSVREAWYSASKHNMADVKELIPEFFYLPEFLFNSNNFDLGCKQNGTKLGDVILPPWAKGDPREFIRVHREALECDYVSAHLHEWIDLIFGYKQQGPAAVEAVNVFHHLFYEGQVDIYNINDPLKETATIGFINNFGQIPKQLFKKPHPPKRVRSRLNGDNAGISVLPGSTSDKIFFHHLDNLRPSLTPVKELKEPVGQIVCTDKGILAVEQNKVLIPPTWNKTFAWGYADLSCRLGTYESDKAMTVYECLSEWGQILCAICPNPKLVITGGTSTVVCVWEMGTSKEKAKTVTLKQALLGHTDTVTCATASLAYHIIVSGSRDRTCIIWDLNKLSFLTQLRGHRAPVSALCINELTGDIVSCAGTYIHVWSINGNPIVSVNTFTGRSQQIICCCMSEMNEWDTQNVIVTGHSDGVVRFWRMEFLQVPETPAPEPAEVLEMQEDCPEAQIGQEAQDEDSSDSEADEQSISQDPKDTPSQPSSTSHRPRAASCRATAAWCTDSGSDDSRRWSDQLSLDEKDGFIFVNYSEGQTRAHLQGPLSHPHPNPIEVRNYSRLKPGYRWERQLVFRSKLTMHTAFDRKDNAHPAEVTALGISKDHSRILVGDSRGRVFSWSVSDQPGRSAADHWVKDEGGDSCSGCSVRFSLTERRHHCRNCGQLFCQKCSRFQSEIKRLKISSPVRVCQNCYYNLQHERGSEDGPRNC
chain 2: YVKMPPTEPECEKQF

Variants of: B1
Assay: GST pulldown, anti-flag western blot quantification; HeLa 3xFlag-EGFP-ALFY cell lysate; three independent experiments; read off a plot

Variant	response
chain 2 T7A	~1.5
chain 2 Y1A	~1.4
chain 2 E10A	~1.2
chain 2 V2A	~1.7
chain 2 K13A	~0.5
chain 2 P6A	~0.67

More lines, now with the values ahead:

response	Variant
~0.87	chain 2 P5A
~1.2	chain 2 E12A
~0.68	chain 2 Q14A
~1.4	chain 2 E8A
~1.1	chain 2 F15A
~0.78	chain 2 C11A
~0.77	chain 2 P9A
~0.55	chain 2 K3A
~1.6	chain 2 M4A

Source: PMC11554844, “BEACH domain proteins function as cargo-sorting adaptors in secretory and endocytic pathways” (The Journal of Cell Biology, 2024)
